Where a chain is given by its changes, count along the chain named.
Experiments:
Conditions in all cases: both partners purified
[1] = biological target: T1, His10-BRIL (Escherichia coli (engineered cytochrome …, stabilised)); experiment: SPR; His10-BRIL immobilised on a nitrilotriacetic acid sensor chip via the N-terminal His10 tag; 2-fold dilution series of sABs at 30 μl/min; 20 °C; BIACORE 3000; 1:1 interaction model
T1 construct: BRIL, an engineered variant of apocytochrome b562; Immobilised by its N-terminal His10 tag for SPR; also called wt BRIL; source: E. coli BL21 (DE3), purified (Ni-NTA); not shown: His10, N-terminal, kept

[2] = biological target: T2, BRIL-AAA-KcsA (construct 2) (Escherichia coli (engineered cytochrome …, chimera)); experiment: SEC; analytical SEC (aSEC): BRIL-fused targets (in detergent, nanodiscs or amphipols) mixed with 1.2–1.5-fold molar excess of sAB, 30 min on ice; Superdex 200 Increase or Superose 6 Increase; retention volume and gel electrophoresis
T2 construct: BRIL, an engineered variant of apocytochrome b562, in place of the N-terminal helix of KcsA; helical linker; potassium channel KcsA; the N-terminal helix (residues 1-23) replaced by BRIL and linker; also called three residues (-AAA-) linker construct; source: E. coli BL21(DE3)plysS, purified (Talon, SEC) in DDM

[3] = biological target: T3, BRIL-AAAA-KcsA (construct 3, 1 turn) (Escherichia coli (engineered cytochrome …, chimera)); experiment: as above
T3 construct: BRIL, an engineered variant of apocytochrome b562, in place of the N-terminal helix of KcsA; helical linker, 1 turn; potassium channel KcsA; the N-terminal helix (residues 1-23) replaced by BRIL and linker; also called four residues or 1 turn (-AAAA-) linker construct; source: E. coli BL21(DE3)plysS, purified (Talon, SEC) in DDM

[4] = biological target: T4, BRIL-AAAAA-KcsA (construct 4) (Escherichia coli (engineered cytochrome …, chimera)); experiment: as above
T4 construct: BRIL, an engineered variant of apocytochrome b562, in place of the N-terminal helix of KcsA; helical linker; potassium channel KcsA; the N-terminal helix (residues 1-23) replaced by BRIL and linker; also called five residues (-AAAAA-) linker construct; source: E. coli BL21(DE3)plysS, purified (Talon, SEC) in DDM

[5] = biological target: T5, BRIL-AARAAA-KcsA (construct 5) (Escherichia coli (engineered cytochrome …, chimera)); experiment: as above
T5 construct: BRIL, an engineered variant of apocytochrome b562, in place of the N-terminal helix of KcsA; helical linker; potassium channel KcsA; the N-terminal helix (residues 1-23) replaced by BRIL and linker; also called six residues (-AARAAA-) linker construct; source: E. coli BL21(DE3)plysS, purified (Talon, SEC) in DDM

[6] = biological target: T6, BRIL-AARAAAA-KcsA (construct 6) (Escherichia coli (engineered cytochrome …, chimera)); experiment: as above
T6 construct: BRIL, an engineered variant of apocytochrome b562, in place of the N-terminal helix of KcsA; helical linker; potassium channel KcsA; the N-terminal helix (residues 1-23) replaced by BRIL and linker; also called seven residues (-AARAAAA-) linker construct; source: E. coli BL21(DE3)plysS, purified (Talon, SEC) in DDM

[7] = biological target: T7, BRIL-2turn-KcsA (construct 7) (Escherichia coli (engineered cytochrome …, chimera)); experiment: as above
T7 construct: BRIL, an engineered variant of apocytochrome b562, in place of the N-terminal helix of KcsA; helical linker, 2 turn; potassium channel KcsA; the N-terminal helix (residues 1-23) replaced by BRIL and linker; also called construct with 2-turn linker; source: E. coli BL21(DE3)plysS, purified (Talon, SEC) in DDM

[8] = biological target: T8, BRIL-3turn-KcsA (construct 8) (Escherichia coli (engineered cytochrome …, chimera)); experiment: as above
T8 construct: BRIL, an engineered variant of apocytochrome b562, in place of the N-terminal helix of KcsA; helical linker, 3 turn; potassium channel KcsA; the N-terminal helix (residues 1-23) replaced by BRIL and linker; source: E. coli BL21(DE3)plysS, purified (Talon, SEC) in DDM

B1: sAB24 (Fab, V domains shown)
VH: EVQLVESGGGLVQPGGSLRLSCAASGFNFSSSSIHWVRQAPGKGLEWVAYISSSSGSTSYADSVKGRFTISADTSKNTAYLQMNSLRAEDTAVYYCARWGYWPGEPWWKAFDYWGQGTLVTVSS
VL: DIQMTQSPSSLSASVGDRVTITCRASQSVSSAVAWYQQKPGKAPKLLIYSASSLYSGVPSRFSGSRSGTDFTLTISSLQPEDFATYYCQQYLYYSLVTFGQGTKVEIK
notes: as the heavy chain of m3 (BAG2), with CDR-H1 32-37 FSSSSI in place of VVDFSL; as the light chain of m3 (BAG2); Parent of BAG2; also called wt sAB24; wt sAB; source: E. coli BL21(gold), purified
Kd [1]: ~23 nM

B2: sAB BAG2 (Fab, V domains shown)
VH: B1 VH with F29V, S30V, S31D, S32F, I34L
VL: B1 VL
notes: Fab heavy chain; CDR-H1 residues 32-37 are VVDFSL; Fab light chain; humanized Fab scaffold of phage library E; source: E. coli BL21(gold), purified
Kd [1]: ~0.3 nM
stoichiometry N [2]: 4
stoichiometry N [3]: 4
stoichiometry N [4]: 4
stoichiometry N [5]: 4
stoichiometry N [6]: 4
stoichiometry N [7]: 4
stoichiometry N [8]: 4

B3: BAG2 F35A (Fab, V domains shown)
VH: B1 VH with F29V, S30V, S31D, S32A, I34L
VL: B1 VL
notes: as the heavy chain of m3 (BAG2) with the stated change in CDR-H1; as the light chain of m3 (BAG2)
Kd [1]: 7.6 nM

B4: BAG2 S36A (Fab, V domains shown)
VH: B1 VH with F29V, S30V, S31D, S32F, S33A, I34L
VL: B1 VL
notes: as for B3
Kd [1]: 5.3 nM

From article PMC7101349, “Synthetic antibodies against BRIL as universal fiducial marks for single−particle cryoEM structure determination of membrane proteins” (Nature Communications, 2020)
